Substitutions are numbered along the chain they refer to.

The target of the assay is T1, GST-SAPK10 (rice (Oryza sativa L. ssp. japonica cv …, UniProt Q75H77 1-362)).
T1 construct: SAPK10 (SnRK2 type kinase), rice; full-length CDS in pGEX-4T-1; Purified GST-SAPK10 gave a phosphorylation band with Phos-tag (autophosphorylation, not detected in S177A); source: Transetta (DE3) cells, purified (GST-Sefinose Kit)
T1 sequence (looked up): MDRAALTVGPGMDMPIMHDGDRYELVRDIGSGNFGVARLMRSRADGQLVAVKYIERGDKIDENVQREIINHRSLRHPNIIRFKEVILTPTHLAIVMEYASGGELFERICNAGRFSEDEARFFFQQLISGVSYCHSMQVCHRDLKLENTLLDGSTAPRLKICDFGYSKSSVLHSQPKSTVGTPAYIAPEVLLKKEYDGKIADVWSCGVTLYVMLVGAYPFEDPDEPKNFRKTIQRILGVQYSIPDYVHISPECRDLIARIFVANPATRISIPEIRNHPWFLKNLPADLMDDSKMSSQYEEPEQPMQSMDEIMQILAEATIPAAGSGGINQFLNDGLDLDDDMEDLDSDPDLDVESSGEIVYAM
Kind of assay: pull-down; GST fusion on glutathione high-capacity magnetic agarose beads; 50 mM Tris-HCl pH 7.5, 5% glycerol, 1 mM EDTA, 1 mM DTT, 1 mM PMSF, 0.01% Nonidet P-40, 150 mM KCl; 4°C, 2 h; blots with anti-His and anti-GST. As to conditions: both partners purified.

B1: His-SAPK10 (enzyme, UniProt Q75H77 1-362, looked up)
chain: T1 sequence (looked up)
notes: SAPK10 (SnRK2 type kinase), rice; full-length CDS in pET28a; source: Transetta (DE3) cells, purified (6 x His-Tagged Protein Purification Kit)
As for B1, the binding result was “binds”.

B2: His-SAPK10^S177A (enzyme, UniProt Q75H77 1-362, looked up)
chain: T1 sequence (looked up) with S177A
notes: SAPK10, rice, Ser177 replaced by alanine; full-length CDS in pET28a; source: Transetta (DE3) cells, purified (6 x His-Tagged Protein Purification Kit)
For the molecule B2, the binding result was “binds”.

These data come from article PMC7689938, “Abscisic acid promotes jasmonic acid biosynthesis via a ‘SAPK10‐bZIP72‐AOC’ pathway to synergistically inhibit seed germination in rice (Oryza sativa)” (The New Phytologist, 2020).
